Test results from patent US20250215097A1 (BEIJING TIANNUOJIANCHENG PHARMA TECH, published 2025).

molecular target: T1, human CCR8 (human, UniProt P51685 1-355); assay: flow cytometry, purified Fab on CHO-hCCR8 cells
T1 construct: Full-length human CCR8 stably expressed on CHO or HEK293 cells; also endogenous on HuT78 cells in one ADCC assay; also called hCCR8; CHO-hCCR8
T1 sequence (P51685 whole entry): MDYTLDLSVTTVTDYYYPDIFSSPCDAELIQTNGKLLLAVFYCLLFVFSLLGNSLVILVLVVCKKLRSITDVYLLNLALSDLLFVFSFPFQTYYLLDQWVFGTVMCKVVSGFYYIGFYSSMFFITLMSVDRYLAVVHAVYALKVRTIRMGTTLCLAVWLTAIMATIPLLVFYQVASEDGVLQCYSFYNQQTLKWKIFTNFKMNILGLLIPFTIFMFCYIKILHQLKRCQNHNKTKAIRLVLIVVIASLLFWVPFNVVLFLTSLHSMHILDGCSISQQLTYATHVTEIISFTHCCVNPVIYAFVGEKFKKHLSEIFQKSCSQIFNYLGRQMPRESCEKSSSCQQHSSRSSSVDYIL

EC50 [nM] | Binder
3.87 | 144D2 G34I (Fab, V domains shown, Purified Fab mutant) VH: EVQLVESGGGLVQPKGSLKLSCAASGFTFNAFAMNWVRQAPGKGLEWVARIRSKSNNYATYYADSVIDRFTISRDDSQSMLYLQMNNLKTEDTAMYYCVRGKEAGAYYAMDYWGQGTSVTVSS VL: DIVMTQAAPSVPVTPGESVSISCRSSKSLLHSNINTYLYWFLQRPGQSPQLLIYRMSNLASGVPDRFSGSGSGTAFTLRISRVEAEDVGVYYCMQHLEYPLTFGAGTKLEIK
4.85 | 144D2 M56G (Fab, V domains shown, Purified Fab mutant) VH: EVQLVESGGGLVQPKGSLKLSCAASGFTFNAFAMNWVRQAPGKGLEWVARIRSKSNNYATYYADSVIDRFTISRDDSQSMLYLQMNNLKTEDTAMYYCVRGKEAGAYYAMDYWGQGTSVTVSS VL: DIVMTQAAPSVPVTPGESVSISCRSSKSLLHSNGNTYLYWFLQRPGQSPQLLIYRGSNLASGVPDRFSGSGSGTAFTLRISRVEAEDVGVYYCMQHLEYPLTFGAGTKLEIK
8.27 | 144D2 N33A (Fab, V domains shown, Purified Fab mutant from E. coli TG1, Ni-NTA purified) VH: EVQLVESGGGLVQPKGSLKLSCAASGFTFNAFAMNWVRQAPGKGLEWVARIRSKSNNYATYYADSVIDRFTISRDDSQSMLYLQMNNLKTEDTAMYYCVRGKEAGAYYAMDYWGQGTSVTVSS VL: DIVMTQAAPSVPVTPGESVSISCRSSKSLLHSAGNTYLYWFLQRPGQSPQLLIYRMSNLASGVPDRFSGSGSGTAFTLRISRVEAEDVGVYYCMQHLEYPLTFGAGTKLEIK
13.8 | 144D2 N33Y (Fab, V domains shown, Purified Fab mutant) VH: EVQLVESGGGLVQPKGSLKLSCAASGFTFNAFAMNWVRQAPGKGLEWVARIRSKSNNYATYYADSVIDRFTISRDDSQSMLYLQMNNLKTEDTAMYYCVRGKEAGAYYAMDYWGQGTSVTVSS VL: DIVMTQAAPSVPVTPGESVSISCRSSKSLLHSYGNTYLYWFLQRPGQSPQLLIYRMSNLASGVPDRFSGSGSGTAFTLRISRVEAEDVGVYYCMQHLEYPLTFGAGTKLEIK
3.16 | 144D2 G34V (Fab, V domains shown, Purified Fab mutant) VH: EVQLVESGGGLVQPKGSLKLSCAASGFTFNAFAMNWVRQAPGKGLEWVARIRSKSNNYATYYADSVIDRFTISRDDSQSMLYLQMNNLKTEDTAMYYCVRGKEAGAYYAMDYWGQGTSVTVSS VL: DIVMTQAAPSVPVTPGESVSISCRSSKSLLHSNVNTYLYWFLQRPGQSPQLLIYRMSNLASGVPDRFSGSGSGTAFTLRISRVEAEDVGVYYCMQHLEYPLTFGAGTKLEIK
5.72 | 144D2 N33V (Fab, V domains shown, Purified Fab mutant) VH: EVQLVESGGGLVQPKGSLKLSCAASGFTFNAFAMNWVRQAPGKGLEWVARIRSKSNNYATYYADSVIDRFTISRDDSQSMLYLQMNNLKTEDTAMYYCVRGKEAGAYYAMDYWGQGTSVTVSS VL: DIVMTQAAPSVPVTPGESVSISCRSSKSLLHSVGNTYLYWFLQRPGQSPQLLIYRMSNLASGVPDRFSGSGSGTAFTLRISRVEAEDVGVYYCMQHLEYPLTFGAGTKLEIK
6.68 | 144D2 N33I (Fab, V domains shown, Purified Fab mutant) VH: EVQLVESGGGLVQPKGSLKLSCAASGFTFNAFAMNWVRQAPGKGLEWVARIRSKSNNYATYYADSVIDRFTISRDDSQSMLYLQMNNLKTEDTAMYYCVRGKEAGAYYAMDYWGQGTSVTVSS VL: DIVMTQAAPSVPVTPGESVSISCRSSKSLLHSIGNTYLYWFLQRPGQSPQLLIYRMSNLASGVPDRFSGSGSGTAFTLRISRVEAEDVGVYYCMQHLEYPLTFGAGTKLEIK
1.34 | 144D2 G34R (Fab, V domains shown, Purified Fab mutant) VH: EVQLVESGGGLVQPKGSLKLSCAASGFTFNAFAMNWVRQAPGKGLEWVARIRSKSNNYATYYADSVIDRFTISRDDSQSMLYLQMNNLKTEDTAMYYCVRGKEAGAYYAMDYWGQGTSVTVSS VL: DIVMTQAAPSVPVTPGESVSISCRSSKSLLHSNRNTYLYWFLQRPGQSPQLLIYRMSNLASGVPDRFSGSGSGTAFTLRISRVEAEDVGVYYCMQHLEYPLTFGAGTKLEIK
2.83 | 144D2 G34T (Fab, V domains shown, Purified Fab mutant) VH: EVQLVESGGGLVQPKGSLKLSCAASGFTFNAFAMNWVRQAPGKGLEWVARIRSKSNNYATYYADSVIDRFTISRDDSQSMLYLQMNNLKTEDTAMYYCVRGKEAGAYYAMDYWGQGTSVTVSS VL: DIVMTQAAPSVPVTPGESVSISCRSSKSLLHSNTNTYLYWFLQRPGQSPQLLIYRMSNLASGVPDRFSGSGSGTAFTLRISRVEAEDVGVYYCMQHLEYPLTFGAGTKLEIK
2.69 | 144D2 M56T (Fab, V domains shown, Purified Fab mutant) VH: EVQLVESGGGLVQPKGSLKLSCAASGFTFNAFAMNWVRQAPGKGLEWVARIRSKSNNYATYYADSVIDRFTISRDDSQSMLYLQMNNLKTEDTAMYYCVRGKEAGAYYAMDYWGQGTSVTVSS VL: DIVMTQAAPSVPVTPGESVSISCRSSKSLLHSNGNTYLYWFLQRPGQSPQLLIYRTSNLASGVPDRFSGSGSGTAFTLRISRVEAEDVGVYYCMQHLEYPLTFGAGTKLEIK
2.22 | 144D2 G34Y (Fab, V domains shown, Purified Fab mutant) VH: EVQLVESGGGLVQPKGSLKLSCAASGFTFNAFAMNWVRQAPGKGLEWVARIRSKSNNYATYYADSVIDRFTISRDDSQSMLYLQMNNLKTEDTAMYYCVRGKEAGAYYAMDYWGQGTSVTVSS VL: DIVMTQAAPSVPVTPGESVSISCRSSKSLLHSNYNTYLYWFLQRPGQSPQLLIYRMSNLASGVPDRFSGSGSGTAFTLRISRVEAEDVGVYYCMQHLEYPLTFGAGTKLEIK
4.71 | 144D2 M56A (Fab, V domains shown, Purified Fab mutant) VH: EVQLVESGGGLVQPKGSLKLSCAASGFTFNAFAMNWVRQAPGKGLEWVARIRSKSNNYATYYADSVIDRFTISRDDSQSMLYLQMNNLKTEDTAMYYCVRGKEAGAYYAMDYWGQGTSVTVSS VL: DIVMTQAAPSVPVTPGESVSISCRSSKSLLHSNGNTYLYWFLQRPGQSPQLLIYRASNLASGVPDRFSGSGSGTAFTLRISRVEAEDVGVYYCMQHLEYPLTFGAGTKLEIK
6.75 | 144D2 N33R (Fab, V domains shown, Purified Fab mutant) VH: EVQLVESGGGLVQPKGSLKLSCAASGFTFNAFAMNWVRQAPGKGLEWVARIRSKSNNYATYYADSVIDRFTISRDDSQSMLYLQMNNLKTEDTAMYYCVRGKEAGAYYAMDYWGQGTSVTVSS VL: DIVMTQAAPSVPVTPGESVSISCRSSKSLLHSRGNTYLYWFLQRPGQSPQLLIYRMSNLASGVPDRFSGSGSGTAFTLRISRVEAEDVGVYYCMQHLEYPLTFGAGTKLEIK
